This note sets out measurements from patent publication US20200369776A1 (ADAGENE, published 2020).

Holding throughout (experiment): FACS, HEK293F
A general note: Flow cytometry measures light scatter and fluorescence of single cells or particles in a stream.

For assay [1], the target named is human CD137 mutant Hu_PW135AA on HEK293F cells (human, UniProt Q07011 18-255).
Description: (§1) Transfected cells were washed in pre-chilled staining buffer (PBS supplemented with 2% FBS), then incubated with 100 nM test antibodies for 1 hr on ice. […] Samples were washed once with staining buffer prior to analysis by flow cytometry.
(§2) To determine the binding regions of the tested antibodies at amino acid residue level, a series of mutations (Table 5) were made at the extracellular domain of human CD137. These CD137 mutation plasmids were used to transfect HEK293F cells.
Assay [2] has as its target human CD137 mutant Hu_GT150AA on HEK293F cells (human, UniProt Q07011 18-255).
Description: as §1, §2
Assay [3] has as its target T1, human CD137 mutant Hu_FSS53AAA on HEK293F cells (human, UniProt Q07011 18-255).
T1 chain: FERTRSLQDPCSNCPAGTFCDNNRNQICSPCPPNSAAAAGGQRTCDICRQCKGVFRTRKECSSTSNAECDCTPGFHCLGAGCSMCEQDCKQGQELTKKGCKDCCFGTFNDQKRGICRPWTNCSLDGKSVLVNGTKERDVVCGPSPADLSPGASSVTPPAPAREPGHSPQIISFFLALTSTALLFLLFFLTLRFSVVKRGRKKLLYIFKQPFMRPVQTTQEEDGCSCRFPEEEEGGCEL
Description: as §1, §2

Assay [4] concerns the target human CD137 mutant Hu_FN125AA on HEK293F cells (human, UniProt Q07011 18-255).
Description: as §1, §2

B1: AG10058 (antibody, human IgG4 S228P, kappa, V domains shown)
VH: EVQLVESGGGLVQPGGSLRLSCAASGFSLSTSGVGVGWIRQAPGKGLEWLALIDWDDDKYYSPSLKSRLTISRDNSKNTLYLQLNSLRAEDTAVYYCARGGSDTVLGDWFAYWGQGTLVTVSS
VL: DIQLTQSPSSLSASVGDRVTITCRASQSVSPYLAWYQQKPGKAPKLLIYDASSLESGVPSRFSGSGSGTDFTLTISSLQPEDFATYYCQQGYSLWTFGQGTKVEIKR
notes: IgG4 (S241P)
For the molecule B1, the binding result in assay [1] and in assay [2] was “binds” each time.

B2: AG10059 (antibody, human IgG4 S228P, kappa, V domains shown)
VH: EVQLVESGGGLVQPGGSLRLSCAASGYSITSGHYWAWIRQAPGKGLEWVSSISGYGSTTYYADSVKGRFTISRDNSKNTLYLQLNSLRAEDTAVYYCARGGSDAVLGDWFAYWGQGTLVTVSS
VL: DIQLTQSPSSLSASVGDRVTITCRASQGIGSFLAWYQQKPGKAPKLLIYDASNLETGVPSRFSGSGSGTDFTLTISSLQPEDFATYYCQQGYYLWTFGQGTKVEIKR
notes: IgG4 (S241P)
In the case of B2, the binding result in assay [1] and in assay [2] was “binds” each time.

B3: reference antibody AC1121 (antibody, V domains shown)
VH: QVQLQQWGAGLLKPSETLSLTCAVYGGSFSGYYWSWIRQSPEKGLEWIGEINHGGYVTYNPSLESRVTISVDTSKNQFSLKLSSVTAADTAVYYCARDYGPGNYDWYFDLWGRGTLVTVSS
VL: EIVLTQSPATLSLSPGERATLSCRASQSVSSYLAWYQQKPGQAPRLLIYDASNRATGIPARFSGSGSGTDFTLTISSLEPEDFAVYYCQQRSNWPPALTFGGGTKVEIK
On to B3, for which the binding result in assay [3], in assay [4], in assay [1] and in assay [2] was “binds” each time.
